Several values for one entry are separate records, joined by “and”; a condition that tells them apart may be missing. Equal values may be shown once.
Assays:
Assay type in all cases: cell-based
human neurons [1] = assay: GCaMP6m live imaging of Ca2+ signals (network activity); design: Ca2+ imaging: Frequency / Ca2+ imaging: Amplitude: unit not given here; settings: for Ca2+ imaging: Amplitude / Ca2+ imaging: Frequency / Ca2+ imaging: Synchronicity: single biological replicates (batches), n=3, listed as Ab42 arctic mutation
Method: To evaluate the effects of Aβ peptide treatments on neuronal network activity, live calcium imaging was performed using human neurons expressing the genetically encoded calcium indicator GCaMP. At DIV6, human neurons were infected with a lentiviral vector, prepared as described previously at Virus generation, carrying a plasmid encoding GCaMP6m under the control of the human Synapsin-1 promoter, ensuring neuron-specific expression. […] At DIV45, when the neurons had reached full maturation, synaptic activity was recorded. For potentiating synaptic transmission of human neurons, the cells were imaged with ambient 4 mM CaCl2 and 8 mM KCl equilibrated in a HEPES-based buffer (140 mM NaCl, 10 mM HEPES, 20 mM glucose, 1 mM MgCl2). […] Neuronal activity was captured in 2-minute videos at a frame rate of 10 frames/second, allowing for the detection of spontaneous calcium transients indicative of neuronal firing. Following acquisition, the videos were analyzed using MATLAB software (MathWorks). Regions of interest (ROIs) corresponding to 10–20 neurons were selected, and fluorescence intensity changes over time were extracted for each ROI. Analyses focused on quantifying the frequency, amplitude, and synchronicity of calcium signal peaks across the neuronal network. Signal peaks were identified using a peak detection algorithm, and synchronicity was assessed through cross-correlation analyses between neuronal pairs or by calculating network synchrony measures ([26]).

human neurons [2] = assay: Neuronal cell density (NLS-TdTomato-positive nuclei)
Method: The prepared aliquots of Aβ peptides were added directly to the culture media during each routine half-media change. To support optimal neuronal development, maturation, and function, while preserving essential factors released by neurons and glia, fresh media supplemented with Aβ was provided every other day until DIV10, and then once weekly until DIV45. […] During each media change, the Aβ peptides were introduced into the cultures to achieve final concentrations of 0.2 μM, 0.15 μM, 0.1 μM, 0.05 μM, 0.025 μM, and 0.005 μM. For scrambled and inverted sequence peptides, only the 0.2 μM and 0.025 μM concentrations were tested. At DIV6, we initiated a half-media replacement protocol in which 50% of the old culture medium was carefully removed and replaced with fresh medium containing Aβ peptides at twice the intended final concentration. […] For example, to achieve a final concentration of 0.2 μM, the fresh medium added at DIV6 was prepared at 0.4 μM, yielding a uniform 0.2 μM concentration after mixing with the peptide-free half. Starting from DIV8 and onward, subsequent half-media changes replaced half of the existing medium with fresh medium containing Aβ at the same target concentration (e.g., 0.2 μM), since the remaining half already contained approximately that amount. This approach was designed to mimic a chronic treatment regimen, allowing us to investigate the long-term effects of the peptides on synapse formation and neuronal activity under sustained exposure conditions.
To assess neuronal cytotoxicity induced by Aβ peptides, we employed a novel Td-Tomato cytotoxicity assay that we developed. Human neurons were infected at DIV 6 with a lentiviral vector carrying a plasmid encoding nuclear localization signal (NLS)-TdTomato under the control of the human Synapsin-1 promoter. The use of the Synapsin promoter ensured neuron-specific expression of Td-Tomato. […] When the neurons had reached full maturation, cells were examined for Td-Tomato localization. Neurons displaying cytoplasmic Td-Tomato were counted as indicators of cytotoxicity. […] For Aβ experiments, imaging and scoring were performed at DIV45, immediately after the final peptide exposure. Data were quantified by calculating the density of neurons with cytoplasmic Td-Tomato, normalized to control cultures, and presented graphically. To assess cell viability, the number of Td-Tomato–positive nuclei, which represent surviving neurons, was counted, normalized to control values, and reported in graphs.

[3] = test system: human neurons cocultured with mouse glia; assay: Quantification of 6E10-positive Aβ aggregates in human neuron cultures; settings: for Density of 6E10-positive structures (number of structures per area of field of view) / Size of 6E10-positive structures (area fraction of the field of view occupied by aggregates): human neurons/mouse glia, DIV25
Method: Mature human iN cells were washed 3 times with PBS (Gibco) and fixed with 4% PFA (Electron Microscopy Science) and 4% sucrose (Sigma-Aldrich) in PBS for 10 minutes at room temperature. Cells were then washed three times with PBS, followed by permeabilization and blocking with 0.25% Triton-X-100 (Sigma-Aldrich), 2.5% bovine serum albumin (BSA) (GeminiBio) and 2,5% NGS (Sigma-Aldrich) for one hour at room temperature. Incubation with primary antibodies was performed overnight at 4°C in the corresponding blocking buffer ([41]). For endosome analyses, fixing solution contained only 4% PFA and the permeabilization was performed separately before the blocking step, using 0.1% Triton-X-100. Primary Antibodies used include rabbit monoclonal anti-Synapsin-1 (Yenzym antibodies, clone YZ6078, 1:1000 dilution), mouse monoclonal anti-PSD95 (Thermo Fisher Scientific, 7E3-1B8, 1:250 dilution), chicken polyclonal anti-MAP2 (EnCor, CPCA-MAP2, 1:1000 dilution), mouse monoclonal 6E10 (BioLegend, SIG-39320, 1:1000), rabbit monoclonal anti-Synaptophysin (homemade, P580 ([26])), and rabbit monoclonal anti-EEA1(Cell Signaling, C45B10, 1:1000 dilution). Cells were washed 3 times with PBS and incubated for 1 hour at room temperature with Alexa conjugated secondary antibodies: goat anti-chicken Alexa 647, goat anti-rabbit Alexa 546, goat anti-rabbit Alexa 488, and goat anti-mouse Alexa 488, all 1:500. Coverslips were washed once with PBS and once with water to remove salts before mounting, then were mounted using Fluoromount (with DAPI) (Thermo Fisher Scientific, 00-4959-52) on glass slides. All images were taken with the Nikon A1RSi confocal microscope (Nikon Instruments Inc.) for analysis of synaptic puncta using Nikon Analysis Software.
To quantify the density and size of 6E10-immunopositive aggregates, we acquired high-resolution confocal images at 60x magnification using a Nikon Eclipse Ti microscope (Nikon, Japan). All fluorescence parameters, including laser power and detector settings, were held constant throughout image acquisition to ensure comparability across samples. We then processed and analyzed the resulting images with Nikon Analysis Software, employing standardized thresholds for object detection. For analyses conducted in human neurons, the density of 6E10-positive aggregates was determined by calculating the number of discrete objects per unit area of the imaged field. In contrast, for analyses in primary neurons, we recorded the total number of discrete objects within each field. In both cases, we measured particle size as the fraction of the total field occupied by 6E10-positive signals, using a binary region of interest encompassing the entire field of view. This approach allowed for consistent, unbiased quantification of both the distribution and relative size of immunofluorescent aggregates under different experimental conditions.

[4] = concentrations that proved synaptotoxic, DIV45
[5] = 0.1uM chronic, biological replicate 1
[6] = 0.1uM chronic, biological replicate 2
[7] = 0.1uM chronic, biological replicate 3
[8] = 0.2uM chronic, biological replicate 1
[9] = 0.2uM chronic, biological replicate 2
[10] = 0.2uM chronic, biological replicate 3

Substance: -.DAEFRHDSGYEVHHQKLVFFAGDVGSNKGAIIGLMVGGVVI.A [Aβ42^arctic]
- Neuronal network activity (in words) (human neurons [1]; any concentration, chronic treatment, DIV45): did not enhance neuronal network activity at any concentration
- Spike frequency and amplitude (in words) (human neurons [1]; [4]): pronounced fall
- Synchrony (in words) (human neurons [1]; [4]): near-complete breakdown
- Ca2+ imaging: Amplitude (human neurons [1]; peptide 0.1 uM): 0.4784 and 0.3202 and 0.4832
- Ca2+ imaging: Frequency (human neurons [1]; peptide 0.1 uM): 10.7529 and 5.405 and 6.996
- Ca2+ imaging: Synchronicity (human neurons [1]; peptide 0.1 uM): 0.2834 and 0.2877 and 0.3503
- Ca2+ imaging: Amplitude (human neurons [1]; peptide 0.2 uM): 0.3279 and 0.286 and 0.3267
- Ca2+ imaging: Frequency (human neurons [1]; peptide 0.2 uM): 0.6879 and 0.8917 and 1.347
- Ca2+ imaging: Synchronicity (human neurons [1]; peptide 0.2 uM): 0.2149 and 0.1382 and 0.2492
- Neuronal cell density, values normalized to Ctrl (Figure 1E) (human neurons [2]; 0.005 uM chronic DIV6-DIV45, DIV45, biological replicate 1): 0.9504
- Neuronal cell density, values normalized to Ctrl (Figure 1E) (human neurons [2]; 0.005 uM chronic DIV6-DIV45, DIV45, biological replicate 2): 0.943
- Neuronal cell density, values normalized to Ctrl (Figure 1E) (human neurons [2]; 0.005 uM chronic DIV6-DIV45, DIV45, biological replicate 3): 0.9651
- Neuronal cell density, values normalized to Ctrl (Figure 1E) (human neurons [2]; 0.05 uM chronic DIV6-DIV45, DIV45, biological replicate 1): 0.9651
- Neuronal cell density, values normalized to Ctrl (Figure 1E) (human neurons [2]; 0.05 uM chronic DIV6-DIV45, DIV45, biological replicate 2): 0.9896
- Neuronal cell density, values normalized to Ctrl (Figure 1E) (human neurons [2]; 0.05 uM chronic DIV6-DIV45, DIV45, biological replicate 3): 1.07
- Neuronal cell density, values normalized to Ctrl (Figure 1E) (human neurons [2]; 0.1 uM chronic DIV6-DIV45, DIV45, biological replicate 1): 0.9054
- Neuronal cell density, values normalized to Ctrl (Figure 1E) (human neurons [2]; 0.1 uM chronic DIV6-DIV45, DIV45, biological replicate 2): 0.8702
- Neuronal cell density, values normalized to Ctrl (Figure 1E) (human neurons [2]; 0.1 uM chronic DIV6-DIV45, DIV45, biological replicate 3): 1.014
- Neuronal cell density, values normalized to Ctrl (Figure 1E) (human neurons [2]; 0.2 uM chronic DIV6-DIV45, DIV45, biological replicate 1): 0.8081
- Neuronal cell density, values normalized to Ctrl (Figure 1E) (human neurons [2]; 0.2 uM chronic DIV6-DIV45, DIV45, biological replicate 2): 0.8351
- Neuronal cell density, values normalized to Ctrl (Figure 1E) (human neurons [2]; 0.2 uM chronic DIV6-DIV45, DIV45, biological replicate 3): 0.7942
- Decrease of neuronal cell numbers (human neurons [2]; higher concentrations, chronic exposure, DIV45): approximately 15%
- Density of 6E10-positive structures (number of structures per area of field of view) [3, 5]: 0.009289
- Size of 6E10-positive structures (area fraction of the field of view occupied by aggregates) [3, 5]: 0.02043
- Density of 6E10-positive structures (number of structures per area of field of view) [3, 6]: 0.01336
- Size of 6E10-positive structures (area fraction of the field of view occupied by aggregates) [3, 6]: 0.034
- Density of 6E10-positive structures (number of structures per area of field of view) [3, 7]: 0.01613
- Size of 6E10-positive structures (area fraction of the field of view occupied by aggregates) [3, 7]: 0.04071
- Density of 6E10-positive structures (number of structures per area of field of view) [3, 8]: 0.03615
- Size of 6E10-positive structures (area fraction of the field of view occupied by aggregates) [3, 8]: 0.05614
- Density of 6E10-positive structures (number of structures per area of field of view) [3, 9]: 0.04641
- Size of 6E10-positive structures (area fraction of the field of view occupied by aggregates) [3, 9]: 0.04714
- Density of 6E10-positive structures (number of structures per area of field of view) [3, 10]: 0.06233
- Size of 6E10-positive structures (area fraction of the field of view occupied by aggregates) [3, 10]: 0.04014
- 6E10-positive Aβ aggregates in treated human neurons (in words) ([3]; chronic exposure, immunofluorescence with 6E10 antibody): significant 6E10-positive Aβ aggregates

— paper PMC12700558, “Aggregation shifts amyloid-β peptides from synaptogenic to synaptotoxic” (The Journal of Clinical Investigation, 2025)
